# Patent US8663642B2, “Anti-CD70 antibody-drug conjugates and their use for the treatment and prevention of cancer and immune disorders” (priority 2003, dated 2014)
# B1: 1F6-vcAFP: anti-CD70 mAb 1F6 linked to auristatin phenylalanine phenylenediamine by the valine-citrulline (vc) dipeptide linker (conjugate)
# VH: QIQLVQSGPEVKKPGETVKISCKASGYTFTNYGMNWVKQAPGKGLKWMGWINTYTGEPTYADAFKGRFAFSLETSASTAYLQINNLKNEDTATYFCARDYGDYGMDYWGQGTSVTVSS
# VL: DIVLTQSPASLAVSLGQRATISCRASKSVSTSGYSFMHWYQQKPGQPPKLLIYLASNLESGVPARFSGSGSGTDFTLNIHPVEEEDAATYYCQHSREVPWTFGGGTKLEIKR
# modifications: non-natural residues
# notes: anti-CD70 mAb 1F6 linked to auristatin phenylalanine phenylenediamine by the valine-citrulline (vc) dipeptide linker
# Key:
# activated T cell clones = experiment: Proliferation of activated T cell clones (3H-TdR); format: cell-based, human
# Caki-1 cells = experiment: alamarBlue reduction cell viability (cytotoxicity) assay; conditions: Caki-1, alamarBlue reduction, 96 hours
# Experimental: (§1) 786-O or Caki-1 cells were incubated with graded doses of 1F6-vcAFP or the non-binding control IgG-vcAFP. Cells were incubated for a total of 96 hours. ^3H-thymidine incorporation (upper panel) and reduction of alamarBlue (lower panel) were used to determine proliferation and cell viability, respectively. Data points are expressed as percentages of the untreated control. Error bars represent the standard deviations of values obtained from quadruplicate wells.
# (§2) To examine the responses of CD70^+ RCC lines to 1F6 ADCs, cells were seeded between 1,000 to 3,000 cells per well in 100 μl of medium. An additional 100 μl of culture medium containing graded doses of ADCs were added to the wells after cells were allowed to attached overnight. In addition to DNA synthesis, cell viability, as a reflection of the cytotoxic activities of ADCs, was also assayed by the reduction of alamarBlue™ (Biosource International, Camarillo, Calif.). The alamarBlue™ dye was added at a one to four dilution during the last 4 to 24 hours of the incubation. Dye reduction was assessed by fluorescence spectrometry using the excitation and emission wavelengths of 535 nm and 590 nm, respectively. For analysis, the amount of ^3H-TdR incorporated or the extent of alamarBlue™ reduction by the treated cells was compared to that of the untreated control cells.
# 786-O cells = experiment: as above; conditions: 96 hours
# Experimental: as §1, §2
# Caki-1 tumors = experiment: Caki-1 subcutaneous xenograft model of RCC; format: in vivo, nude mice; design: average tumor size: dose or concentration left out as unconfirmed
# Text: Tumors were initiated in nude mice by implanting tissue tumor blocks (30 mm^3 in size) containing Caki-1 cells. Treatment began when average tumor size within a treatment group was around 100 mm^3. In the upper panel, treatment for the IgG and 1F6 groups began 17 days post implantation (filled arrow), while treatment for the 1F6-vcAFP and IgG-vcAFP groups began 25 days post implantation (open arrow). Indicated doses of either unconjugated mAbs or their ADCs were given for one course on a q4d×4 schedule.
# Using xenografts of the Caki-1 line in nude mice, the […] antitumor activity of 1F6-vcAFP was tested. To establish Caki-1 tumors, nude mice were injected subcutaneously with 5×10^6 Caki-1 cells in 0.2 ml PBS. […] Caki-1-containing tumors were excised from tumor bearing mice and tumor tissue blocks of approximately 30 mm^3 were prepared. Naive nude mice to be used for evaluating in vivo antitumor activity of anti-CD70 ADC were each implanted subcutaneously with one tumor block of 30 mm^3. […] Treatment was initiated when the average tumor size within a group was approximately 100 mm^3 (FIG. 12, arrows).
# [1] = test system: CD70^+ hematologic cell lines; experiment: 3H-TdR proliferation assay, panel of CD70^+ hematologic lines; format: cell-based, human; conditions: all the responsive cell lines tested
# Experimental: FIG. 5: Effects of anti-CD70 ADCs on the proliferation of transformed hematologic cell lines. A subset of the CD70^+ cell lines shown in FIG. 4 and the CD70^− Jurkat cell line were tested for their sensitivity toward 1F6 ADCs. Graded doses of the 1F6-vcMMAE, 1F6-vcAFP, or the corresponding non-binding control IgG (IgG) ADCs were added to cells at the initiation of culture. Cells were exposed to the ADCs continuously for a total of 96 hours. Proliferation was determined by pulsing with ^3H-TdR during the last 16 hours of incubation. The upper panels show the response of the WSU-NHL and Jurkat lines. The lower panel summaries the responses by the tested cell lines to 1F6-vcMMAE and 1F6-vcAFP in form of IC50s.
# A subset of the CD70^+ hematologic lines listed in FIG. 4 was tested for sensitivity to the 1F6 ADCs. These lines were seeded at 5,000 cells per well in 96-well plates in quadruplicates in a total of 200 μl of culture medium containing graded doses of the ADCs as indicated in the FIG. 5 and the accompanying figure legend. Proliferation assays were carried out for 96 hours. Tritiated thymidine (^3H-TdR) incorporation during the last 16 hours of incubation was used to assess DNA synthesis. The responses of a CD70^+ B lymphoma cell line WSU-NHL and the CD70^− Jurkat cells are shown in the upper panels of FIG. 5. […]
molecule,measurement,setting,value
B1,relative activity,activated T cell clones; T cell clones,more active than 1F6-vcVMMAE
same,"IC50, proliferation",activated T cell clones; all 3 clones,below 0.05 μg/ml
same,concentration at which maximal cytotoxic effects were achieved,Caki-1 cells,lower than 0.1 μg/ml
same,concentration at which maximal cytotoxic effects were achieved,786-O cells,lower than 0.1 μg/ml
same,average tumor size,"Caki-1 tumors; 1, 56 days after treatment initiation",< 600 mm^3
same,average tumor size,"Caki-1 tumors; 3, 70 days after treatment initiation",under 200 mm^3
same,therapeutic activity / tumor growth,"Caki-1 tumors; Caki-1 xenograft, q4d×4",significantly inhibited tumor growth
same,relative inhibitory activity,[1],more potent inhibitory activity than 1F6-vcMMAE
